Experimental findings from a protein production outcome set (Wang et al. 2014) are described below.
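Further: failed if final PepcDB status was selected cloned or expressed and not failed if soluble or beyond.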

The nature of the series: label from the status in PepcDB records.
For the sequence “MVERLLEIIERSLRKCPWLEKQSIETLLEALASEIEEVAEAVKKNDLANLEEEIGDLIYDALLVAAVAQRDYGIDLESAIQKVVEKISHRKPWLFWEEKISLEEAEKIWKERKKKI”, the protein production result is recorded as “not failed”.
As to “MVEVYRLTKRHLDGAKSESALLNQIKIFSTCVGHGVGTIDFSEKVLEIPPAEFEAILQNGGEYLRFKLGNLSRYFEVEVFPEHAAKLLPEMMECPFKKVLEELREGYLVLRKDFKHA”, the protein production entry is listed as “failed”.
In the case of “MVEYDLSVIILNYNAKRFLEECINSIYENTKEIKFEVILVDNKSTDNSAEFIKEKFTGKEDFTFIESKVNCGFAAGNNKAIEVSKGRAVLLLNPDTVVNGNVIGETYKCLMKDDKVGVAGCKVLNPDGTLQLACRRMIPTPKDAFYKIFGLSKIFKNNKKFTRYNLTYASADEFIDVDSVSGSYLMIKKEVIDKIGYLDETFFMYGEEMDWCLRARKAGYIVRYCPVGTIIHYKGESSKQLSHKATYEFYRAMWIFYKKNNKGNIFLDSIVWLGVKFLLFIALIKLAILPKNRVGSKG”, the protein production result is recorded as “failed”.
In the case of “MVFCRGCAKEISDDAGTCPHCGAPQLIISSASANKEAPASGNWYFEVLKKYAVFTGRARRKEYWMFFLFNVLISIVIGVIGGLVGDGGILANLYSLAVLVPGIAVGVRRLHDTDRSGWWLLVPIANLVFLVQEGHAGPNRFGPSPK”, the protein production result is “failed”.
On to “MVFKRRDRRSPLQVLWELIWPRGGWTRAFHYVKHRVRRLPDRPERIARGIGAGVFASFTPFYGIHFVIAAILARLINGNILAGLSGTFFGNPLTYVPIGVVSLQTGHFLLGTEFHEGAKQGLMRKFARAAGDLKDNFLALFTDRDADWQALGLFFDEVFFPYMIGGIAPGIVAGVVCYYLSLPVISTYQKRRRAKIKAKFEAIKKKAQADLPNPGNPG”, for which the protein production entry is listed as “failed”.
In the case of “MVFLKRFRAYGFKSYADEITINFTHSMTGIVGPNGSGKSNVVDALKWVLGERSMKHLRSKSGDDMIFFGSKDKPASKLAEVELTFDNSQKLLHDPRPEISVMRRIYRGSGQSEYYINGELVTLKEISGIFADIGLEKGSLGIISQGSVSFVEAKPEERRKIFEDASGIGRYTKRKEEVTNQLARTVQNLKQVSIVLNELKKDLKKLTIQADKAQRFVKLKEELKELELSVLVADYLKSQGELDRFNHQIGYIEQDFKLHEPQLQLLEDQLNIFNQRFRDADEQSIKLQQELQAVYQTINELEQRKAVIDVQLKNELSKKDEKHKIQALKKLIRVDQAQLESLQAQVLKTTSEITLLTNELSTVQTELDTTKLNLNQNSAALVYQQAQQEFLKAQNEEWVKTNPAHVLVKNVKALTGLLNTLNTFLKFEKQYEKALLKALGKSIGYLVVNNNLAALKAIDFLLTNQIGQVTFLPIDDIAFDTKIAPEHMEILQQLDGFLGVGSDHVSCDESLQPIVNALLGQVIIASDLQAALKLSSYTYKLYRVVTLNGETVYAGGIIQGGYVKDNLSLYNLQEKLASSEANITQLEHNEKQLRTNLTSLETKLNELNKKLKYEEILLEKFNERVNHTNKAILSYKIEYEQLTNESFDGTPHSFDETRLVESLNRAWAERDELNSQLKLNQELKETLAKSIKLAEAKTADLRALLDEQRSQLVLAREGKIRFENTIHNITDKINGGYKLTMEFAIANYNKPIKLSTMQAQNKIARMQSQLDEMGPINLESIAEIADKQKRFDDINGEYESLQTAIKDLQTAIGEIDELACKEFDELIQKVNAELPKTFNYLFGGGSCQIRYTDTDNVLLSGIEVFANPPGKNVANLMLLSGGEKTLVALSVLFSILRVSAFPLVILDEAESALDPANVERFANIIGNSSNNTQFLIITHRQGTMMKCDMLLGAAMQTKGVTKTFAVSLEKAEQYISKDKQN” it was “failed”.
Take “MVFPSEQEQIEKFEKDHVAQHYFEVLRTLISKKSVFAQQVGLKEVANYLGEIFKRVGAEVEIDESYTAPFVMAHFKSSRPDAKTLIFYNHYDTVPADGDQVWTEDPFTLSVRNGFMYGRGVDDDKGHITARLSALRKYMQHHDDLPVNISFIMEGAEESASTDLDKYLEKHADKLRGADLLVWEQGTKNALEQLEISGGNKGIVTFDAKVKSADVDIHSSYGGVVESAPWYLLQALQSLRAADGRILVEGLYEEVQEPNEREMALLETYGQRNPEEVSRIYGLELPLLQEERMAFLKRFFFDPALNIEGIQSGYQGQGVKTILPAEASAKLEVRLVPGLEPHDVLEKIRKQLDKNGFDKVELYYTLGEMSYRSDMSAPAILNVIELAKKFYPQGVSVLPTTAGTGPMHTVFDALEVPMVAFGLGNANSRDHGGDENVRIADYYTHIELVEELIRSYE”: the protein production result was “not failed”.
Regarding “MVGLGTVINVILIIVGGFVGLFLKNFLKESLQKSLMQAMGVAVLFISISGVLEKMMLVEKSHLISNHTNMMIITLALGTVLGELLSLDSYIDKFGNYLKQKTGSGNDIKFVEAFVTSTCTVCIGAMAVVGSIQDGIAADHSILFAKGMLDMIIIAIMTVSLGKGALFSALPVALLQGSLTIVAFFMGSLLNPSSLDYLNLVGNMLIFCVGVNLLFNLNIKVINMLPAIILAILWGSFI”, the protein production entry is given as “failed”.
For the sequence “MVIDFSAFYELPRLIDRLAAEGESSFAASRGQAVFPPLNIGEDESAVYVRALIPGGDLSALDLTLTDKTLVLRGELPPVRGRYYRQERRTGPFQRVVLLNVPIDRDRVHAAMRDGVLEVVLPKAQQERLRTIHITTR”, the protein production entry is listed as “failed”.
With “MVIETGVWIVLLGATVTAVATGLGALPFLFVRDIGDWWLGVFNAAAGGLMLAASHSLITEGSMLSTGRTLIGILVGLALILGANTFISRGDDHDVAELAGADARKALLILGIMTAHSFAEGVGVGVSYGGGDELGAFITAAIAVHNIPEGLAISLVLVPRGTPLWKAAGWSIFTSLPQPLMAVPAFLFVLVFEPFLPIGFGLAAGAMIWMVFAELIPDALEDVPGPTAGAAVTLAFAALFAFQHFVLHV”, the protein production entry is “failed”.
The result for “MVIGSGVFLTRTCYLRLQPPSLVLRRRFCAATTACSVPLNGNKKKKSEKEKVIVISGPTGAGKSRLAMELAKRLNGEIISADSVQVYKGLDVGSAKPSDSDRKVVPHHLIDILHPSQDYSVGQFYDDGRQATKDILNRGRVPIVTGGTGLYLRWFMYGKPDVPKPSPEVIAEAHDMLVGFQTEYNWDAAVELVVNAGDPKASSLPRNDWYRLRRSLEILKSTGSPPSSFRIPYDSFRVNLVAPDADDFLEDGSSADISIQNIETDLDYDFLCFFLSSPRVALYRSIDFRCEDMLSGPNGVLSEARWLLDLGLLPNSNPATRAIGYRQAMEYLLQCRRYEGESSPREFYAFLNKFQTASRNFAKRQMTWFRCEPMYHWLNASKPLDSILQCIYDAYESEAEMVEIPESLRMSKDVRDSREASELKGYRSKNRHFVRREDCSSVLEWIRSEGCKSEASCVESAIA” reads “failed”.
For “MVIGVPKEIKTLENRVALTPGGVESLVRRGHTVLVERGAGEGSGLSDAEYARAGAELVGREEAWGAEMVVKVKEPLPEEYGFLREGLILFTYLHLAADRGLTEAMLRSGVTGIAYETVQLPDGTLPLLVPMSEVAGRMAPQVGAQFLEKPKGGRGVLLGGVPGVAPASVVILGGGTVGTNAAKIALGMGAQVTILDVNHKRLQYLDDVFGGRVITLTATEANIKKSVQHADLLIGAVLVPGAKAPKLVTRDMLSLMKEGAVIVDVAVDQGGCVETIRPTTHAEPTYVVDGVVHYGVANMPGAVPRTSTFALTNQTLPYVLKLAEKGLDALLEDAALLKGLNTHKGRLTHPGVAEAFGLPYTPPEEALRG”, the protein production result is “not failed”.
“MVIGVTGKIGTGKSTVCEILKNKYGAHVVNVDRIGHEVLEEVKEKLVELFGGSVLEDGKVNRKKLAGIVFESRENLKKLELLVHPLMKKRVQEIINKTSGLIVIEAALLKRMGLDQLCDHVITVVASRETILKRNREADRRLKFQEDIVPQGIVVANNSTLEDLEKKVEEVMKLVWEKRE”: the protein production entry is reported as “not failed”.
“MVIQEGFSFGNFIIDVFSIFLFILWFWLLITISGDLFRRHDVSGFAKVLWVIFLIVLPYIGVFAYILTQGRGMAERNQERAREARNELRQVVGFSVADELEKLDRLKASGSISEDEFKRLRAKLVE”: the protein production result is “failed”.
On to “MVIQIVIISPGDGNLSPAHLLHRFALSLLESLRGKKMMFVGTEEMYLSLICLLHSQIPENYKSMDYLWITHRLLSQDLEILVDYNAMIEFYWAPFLLESNSDNAIVDIVSDRIMRKGLINKHGKHWRGADIVVESSFKDGNKRIVEMESEDAYLMTMGKWVKKSMDPLRTKVFFSTMSPTHYKIEDWGGEQGKNFYNQTTPIQDMNHWPSDCSKTLMKVIGEELDQRADFLVTVLNITQLTSYRKDAHTSIYKKPWSPYDEGSASKSG”, for which the protein production result is on record as “failed”.
As to “MVIRRLYQFCASHVVRNCSSLKCAQNIHGHNYEVEVFIETNRLDNANMALDFGLMQQEMQVFIESFDHAHHFWDKESLEFQRFIENHCVRYVKCSFNLSAESYALMFLYYLTKILQKSVFSNDEGELKVSSVRVHETKNGYAESFLKDLENPHFKSLVHDHCVSFSQGIQNLWHDKDFFNKIISDEKQCFFHAKPLHQIP”, the protein production result is on record as “failed”.
“MVISSKITDDCSYVKCLSFMMKSRTGNILLAQPENLAHDDDLSQSLLSQVTAVWLWTSLSYGGKPIFNRGISQLVTKKWTIIFNTENTNNHVSLPAPQEISPRLRLASSGTWRLVIGTWE”: the protein production entry was “failed”.
As to “MVITGKFAMYVTAFVVTVSLIEAFVLWRKRRDGVKPFSWNEVWLSLADLAGRKLSVLLPLSLAAPVFSFAWDHRLFTITLNSALAVFLLFVGQEFCYYWYHRAAHRIRFFWATHAVHHSPNQLTLTSAYRLGWTGKLTGSAVFFAPLVLLGVRPEVVLATLSLNLLYQFWLHNDWMPKLGWFEYVFNTPSAHRVHHASNIDYLDANYGGVLIIFDRLFGTYVEERADEPCRYGLVHPTTTQNPIVNQFEHWVSLGRDMASASKLWHAAAYLIMPPGWAPNGKGTTTEILRRQQEELRQAGWQRPGVV”, the protein production result is recorded as “failed”.
As to “MVITNFLILLLGLVFLVKGSDYFVKSASSIAKKLGISEFIIGLTLVAVGTSIPELASSMAASIQQASGIVIGNVVGSNIANIGLIVGIAAFLSPMKTEVEMLRRDGYIMLFAALLFFAFALNGELSKIEAGLFLLLYIAYTFFLFEETDKHEGKLYFKEFIKYFVKFQYINSARQKINGINNGVSRTNGDSGNKNCQPKNSFSKDILALILSCAAIIIGAKYFVSESIFFAELLGIPDTIIGTTLVAIGTSLPELAVTVSAARQGYGNIALGNIIGSNITNILMILGVSGLLFPIAVAEISLVFTAPVMIFISVVLLIFISTGWEIKRWEGAALMSLYAAFLFVLFRIS”, the protein production result is reported as “failed”.
For “MVIYDLHESTYKQEVYCNIPDATSWSFPNGVLIKVVRGCWILYEKPHFRGQKCVLEEGEKVLNRDWILQNRRHPQRNFILGSLKRVLKDCSIPEIELFPQSDPACCPVYIQRAVPNLEELNISKSVSFTVKSGVWLAYPDINFKGQATVLEEDHGLFEISTAEMKSLHPLQMGGLKVEMPMNLKVIIYEKPHFHGQAKEFSEHIDSVPNFLKNNGDFHRIGSIRVIGGVWVAYEKEHFKGQQFLLEEGDFEDSNACGALSSPILSFRYLQANFIESSVTLFESDLESGKFIDITNQEISDLEEIGFGSKTRSIHVKSGVWVAYQQKFFCGEQYILEKGKYKCFFDWGGSNNIIMSIRPIQLEPLGINEPPHLLKAFSKPGFQGECIDFTEETSDLTPLMPCSFKVLRGCWLLYYQEDMFVNHCVLEEGLYADLTSCGCPASKVKSLKPIDYVFEEPSISLFALEHCEGRELHLEEAVNSVLNKDLHFYTQSVWVKSGLWIAYEGSNFLGRQILLRPNEIPNWTAFSRWKTIGSLRPMKQPAVYIRIKNRAQGEYLTVTGSLADTRATSVCISPYSGKHTQIWYYCRGLFKSKASDTCLDVIGGRDTPGAKVALWTEHGQFRQKWRLNKNGTISSYLSDQLVLDVKGGNYCDKTHVIVNQPLEGEETQKWDIEIL”, the protein production entry is given as “failed”.
